Test results: the DeepSol protein solubility set

Assay: soluble on expression in E. coli; label from the status in PepcDB or PDB records

Sequence | soluble on expression in E. coli
MGHHHHHHSHKIRVAHTPDADDAFMFYAMTHGKVDTWLEIEHVIEDIETLNRKAFNAEYEVTAISAHAYALLDDKYRILSAGASVGDGYGPVVVAKSEISLDGKRIAVPGRYTTANLLLKLAVEDFEPVEMPFDRIIQAVLDEEVDAGLLIHEGQITYADYGLKCVLDLWDWWSEQVKLPLPLGLNAIRRDLSVEVQEEFLRAMRESIAFAIENPDEAIEYAMKYSRGLDRERAKRFAMMYVNDYTYNMPESVDAALKKLYEMAEAKGLI | not soluble
MSLYSKDGENYFIVDAHVALWDARRENQRNIHGKQFIDCFYDYHRNLSPASELWPYEDFLYQGGERLMKDLFTDGYVDHAIFQPAHLGAFYNTGFGQTEEAFALTRKHPGMLTYNHCFDPRFEEAGLKQLREDAARFGLKGVKLYTAEWKGDSRGYKLSDPWTYRYLDACRELGIKNIHVHKGPTIRPLDRDAFDVADVDAAASDFTDLNFVVEHCGLPRLEDFCWIATQEPNVHAGLAVAIPFMHTRPRYFAQIIGELLYWLDEDRIQFSSDYALWTPRWIVEQFVDFRIPDDMTGEYPQLTVAQKKKILGLNAAAMYDIEVPAEGHHHHHH | soluble
MSLSNTSASFGFKDVDASLKAGLVRGVFDRVAKNYDIMNDLMSGGVHRLWKDAVAARLNPQPGEVIIDCAGGTGDMARRFAKMARKAQERRGGPDATINIVDYNAEMIMAGIERGGEPEITWTVGDAQRLPLPDAYADAYVISFGIRNVTDINAALREARRVLKPGGRFLCLEFSRPVTEPLAKAYDAYSFKVIPQVGEWVAKDRDAYQYLVESIRRFPDQRTFAGMIEAAGFKRVTFTNFTGGVAALHQGWAIEGHHHHHH | not soluble
MGSDKIHHHHHHMKILIKQDFDTMSEWAKMLLLSTMSQDKRVNLSITAGKTPALVYQKLASIVKNSSDFDNVHYYNFDEIPVPHQKEGITLTDLRTLYLTPAEISEQNIHPLTVENFQQQEQRIADAGGLDLMLIGLGADGHFCGNMPTTTHFKNETYQVTVTGSEPWFVPEMMQPGMTFVTMGPASIMKVKHLVLIVNGEQKAQMVKQVLQGPVTETYPASILQLHPNLTVLLDEAAASQLEK | not soluble
MSTFRLALIQLQVSSIKSDNLTRACSLVREAAKQGANIVSLPECFNSPYGTTYFPDYAEKIPGESTQKLSEVAKESSIYLIGGSIPEEDAGKLYNTCSVFGPDGSLLVKHRKIHLFDIDVPGKITFQESKTLSPGDSFSTFDTPYCKVGLGICYDMRFAELAQIYAQRGCQLLVYPGAFNLTTGPAHWELLQRARAVDNQVYVATASPARDDKASYVAWGHSTVVDPWGQVLTKAGTEETILYSDIDLKKLAEIRQQIPILKQKRADLYTVESKKP | soluble
MGDSAPARIDTLEIKLLFAGDIMTHGPQIESAKCEGGRVYDFSSSFDTLASRIGAADLAIGNLETTFAGAPYSGYPTFSSPDAMGEALKNAGFDVLTTANNHTADKGKKGIIRTLDMLDSLGIAHTGSYRDIFDRDKMTPLILEVKGVRIAILAYTYGTNGMPVPAPTWVDPIDTVMIKKDLLRADSLGADYRIVQIHWGIEYRKEPDSEQLELARKLHRYGADAIIGSHPHVVQGSQWLKSDSKTSFVIYSMGNFISNQRKPAATRGGMLLSLTLRKVGDRITTHPDYQYVFVNKRTPQGKRVYRLLPVDPFSSDTLPSLPPEEQRDYKEFAKYYQMIPLVLIEREDNRIRNRLQVSQRAFLEHHHHHH | not soluble
SAKGGKGPKGKKITLNVAKNCIKITFDGRKRLDLSKMGITTFPKCILRLSDIDELDLSRNMIRKIPDSIAKFQNLRWLDLHSNYIDKLPESIGQMTSLLFLNVSNNRLTTNGLPVELNQLKNIRTVNLGLNHLDSVPTTLGALKELHEVGLHDNLLTTIPASIAKLPKLKKLNIKRNPFPNADESEMFVDSIKRLENLYLVEEKDMCSSCLQRCQQARDKLNKIKSMAPSAPRKALFSNLVSPNSTAKDAQEEWR | soluble
MKQYIPFIRKDPVVPVIRLQGVIASGPRGGLSDQGLAAVIEKAFRRGKPAGVALVINSPGGSPVQSSLIAARIRRLASEKGVRVHAFVEDVAASGGYWLACAGDEIWVDESSLVGSIGVIFSSFGFHEFMARNGIERRVHTAGRSKSLADPFLPEKPEDVERLKALQEPIHRAFIEYVKRHRGTRLDLNADLFNADVWTGQEAVRLGLADGVAHLVPKLQENYGDKVRLVPYGQRRPFLQRLGMSLAGQALAEVENRALWARYGLLEHHHHHH | not soluble
PGTESTFSNCYALNVEVVSLDSGDQAVLGGFVGQVSANFIAKHCYVSAKVTGGKNPGAFVGMTADESMNCKYDGCFYNNEQNP | not soluble
MPPKGGGAGSKKQQGGKKCKDDEADFDAQLAKALQEVQVSKDKQGGDANKKAQKGKQRTSKQESNGEANDNNDASDPKVVSTADHPDNPYPQVAEGMKRQTWPEPTIPVSQQFARGNFPVGIICEHPGEVNAYRYSSEEKRAMEHATEEQVQDLRCAAEVHRQVRRYAQSFIKPGISLLSMTDRIEKKLEELIEKDGLNRGQAFPTGCSLNHVAAHYTPNTGDKCVLMYDDVMKVDFGTQINGRIIDCAWTVAFKDEYEPLLTAVKEATYEGVKQAGIDVRLCDVGAAIQEVMESYEVELNGKVYPVKSIRNLSGHTIAPYVIHGGKSVPIVRGGEATRMEEGELFAIETFGSTGRGFVQEDMECSHYMMVPGGEKTQVRSDKAQQLLRHIHKTYNTLAFARKWLDRDGHDRHLLNLNQLVEAGAVNKYPPLCDIRGCYTAQLEHTLILKPTAKEILSKGDDY | soluble
MTVSREVELEGHIIDSGMMQSCFGIIMDLGGSFSVQKFDIGRHKDEESYARMLVEADDEAQLQSIVHELHQHGVNPSDPKDATLVPAPDDQVVPHGFYSTTNHPLEHHHHHH | not soluble
MSDSPDSPPDAEPSIAARIAAVLPSLTPIHRRMGEYVLANPFRAATMRIDELANAVDASIATANRFARALGFDGYPALRAALVRGFEATLAPVERLRSAQEHEAGARGGELIDASFEQAL | not soluble
MGNNSSAQSSTPSLPIDSTFNLPSPLPSWPSGEGFAKGRIDLGGLEVSQVDTFNKVWTVYEGGQDNLGATFFEPSSVPEGFSILGFYAQPNNRKLFGWTLVGKDLSGDSLRPPVDYLLLWSGKSTKVENNKVETGYFWQPVPPDGYNAVGLIVTTSDEKPPLDKIRCVRSDLTDQSEPDALIWETNGFSVSSSKPVNRGTQASGVSVGTFFSNSPNPALPCLKNNNFDFSCMPSKPQIDALFQTYAPWIYFHKDEKYLPSSVNWFFSNGALLYKKGDESNPVPVEPNGLNLPQGEFNDGLYWLDLPVASDARKRVQCGDLQSMEVYLHIKPVFGGTFTDIAVWMFYPFNGPSRAKLKAASIPLGRIGEHIGDWEHFTLRISNFSGKLHRMYLSQHSGGSWADASEIEFQGGGNKPVAYASLNGHAMYSKPGLVLQGKDNVGIRNDTGKSEKVIDTAVRFRVVAAEYMRGELEEPAWLNYMRHWGPKIDYGHENEIRGVEKIMVGESLKTTFRSAIKGLPNEVFGEEGPTGPKLKRNWLGDEV | not soluble
AHHHHHHGSEEYYVCPECGSEDVEVIKERGREVTLRCNECGYVWMITLPKLREIPVIVSKHERSFREKAVLPEDEVIKVGDVIEIENDQVKVLSIELPGGKRVRKAKVAEIQTIWGESLTYPKVFGVSIYLPGGITQSFKVVVDREEEFVVGEVIEVGGYTFKVEMIKTEKKLMRSGKAKAENIVRLMGHAIKGRARRKLKIYEGYDSISAENQ | not soluble
MPIITKNTDTTCQTPPLLSIICPAYNQEAFVAQALDGFLSQQTRFNYEILINDDASTDGTARIIAQYAERHPTIIRAFYQQVNQYSQGLPCVPDLFAEARGRYIAYCEADDYWTDPRKLQLQVDFLESHPDYVITYHDAVAFDENGEYGVQLQGHLRADATALELQQARRLSTLTTCFRNVFSTMPPELNIRVAPLNDMCWWSLLGAHGKGKFMADIKPAAYRLHAGGVFSMRSDKRKLHMNLQTCSSLANYYNLQGNQALYEYFLMQTVCLSLAALTPSHKLQTLWQVASNVVVNLGRRLLPTTGKAHVQ | not soluble
SKHKQSSFTKSCYPRGTLSQAVDALYIKAAWLKATIPEDRIKNIRLLKKKTKKQFMKNCQFQEQLLSFFMEDVFGQLQLQGCKKIRFVEDFHSLRQKLSHCISCASSAREMKSITRMKRIFYRIGNKGIYKAISELDILLSWIKKLLESSQ | soluble
